One experiment concerns the target human glucagon receptor (human, UniProt P47871 26-477). The experiment in a line: cell-based or functional assay.
For a further experiment, the target named is human GLP-1 receptor (human, UniProt P43220 24-463). The experiment in a line: cell-based or functional assay.

*1 amine or outer side, *2 acyl side, *3 side chain or, on linkers, in order; H or OH if unused. Where no end group is shown, it is not given here. Side-chain parts run from the residue outwards. [ ]: non-standard residue; d: D form. The star is where a group is joined. γGlu = O=C(O)[C@H](CCC(=O)[*:2])N[*:1]; Palmitoyl = CCCCCCCCCCCCCCCC(=O)*; Aib = CC(C)(N)C(=O)O

Chain of human glucagon receptor (P47871 26-477): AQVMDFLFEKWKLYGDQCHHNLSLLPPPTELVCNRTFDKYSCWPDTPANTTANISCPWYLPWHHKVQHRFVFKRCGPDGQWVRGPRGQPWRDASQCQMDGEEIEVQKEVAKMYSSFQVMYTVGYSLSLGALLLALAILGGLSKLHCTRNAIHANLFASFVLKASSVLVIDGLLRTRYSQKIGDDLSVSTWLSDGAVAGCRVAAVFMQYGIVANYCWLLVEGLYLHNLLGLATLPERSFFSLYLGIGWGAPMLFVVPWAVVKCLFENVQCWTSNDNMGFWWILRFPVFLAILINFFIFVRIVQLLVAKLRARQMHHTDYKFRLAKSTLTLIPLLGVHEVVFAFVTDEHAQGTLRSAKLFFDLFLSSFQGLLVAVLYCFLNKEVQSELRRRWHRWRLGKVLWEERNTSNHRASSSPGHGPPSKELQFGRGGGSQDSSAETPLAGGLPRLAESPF

Consider H[dS]QGTFTSDLSKQMESRRAQDFIEWLKSGGPSSGAPPPSK(6‑((4,4-diphenyl-cyclohexyloxy)-hydroxy-phosphoryloxy)‑hexanoyl)-NH2 [SEQ ID NO: (107)], for which the “EC50 hGlucagonR (cAMP formation)” value with human glucagon receptor was determined as 5.16 nM. For the same molecule, the “EC50 hGLP-1R (cAMP formation)” value in the experiment with human GLP-1 receptor came to 0.009 nM.

B1: SEQ ID NO: (110) (peptide)
peptide: H[dS]QGTFTSDLSKQMEEEAAKDFIEWLKAGGPSSGAPPPSK([γGlu-Palmitoyl])-NH2
modifications: N-terminus assumed
SMILES: CCCCCCCCCCCCCCCC(=O)N[C@@H](CCC(=O)NCCCC[C@H](NC(=O)[C@H](CO)NC(=O)[C@@H]1CCCN1C(=O)[C@@H]1CCCN1C(=O)[C@@H]1CCCN1C(=O)[C@H](C)NC(=O)CNC(=O)[C@H](CO)NC(=O)[C@H](CO)NC(=O)[C@@H]1CCCN1C(=O)CNC(=O)CNC(=O)[C@H](C)NC(=O)[C@H](CCCCN)NC(=O)[C@H](CC(C)C)NC(=O)[C@H](Cc1c[nH]c2ccccc12)NC(=O)[C@H](CCC(=O)O)NC(=O)[C@@H](NC(=O)[C@H](Cc1ccccc1)NC(=O)[C@H](CC(=O)O)NC(=O)[C@H](CCCCN)NC(=O)[C@H](C)NC(=O)[C@H](C)NC(=O)[C@H](CCC(=O)O)NC(=O)[C@H](CCC(=O)O)NC(=O)[C@H](CCC(=O)O)NC(=O)[C@H](CCSC)NC(=O)[C@H](CCC(N)=O)NC(=O)[C@H](CCCCN)NC(=O)[C@H](CO)NC(=O)[C@H](CC(C)C)NC(=O)[C@H](CC(=O)O)NC(=O)[C@H](CO)NC(=O)[C@@H](NC(=O)[C@H](Cc1ccccc1)NC(=O)[C@@H](NC(=O)CNC(=O)[C@H](CCC(N)=O)NC(=O)[C@@H](CO)NC(=O)[C@@H](N)Cc1c[nH]cn1)[C@@H](C)O)[C@@H](C)O)[C@@H](C)CC)C(N)=O)C(=O)O
Regarding B1, the “EC50 hGlucagonR (cAMP formation)” value with human glucagon receptor is 0.323 nM. Moreover, the “EC50 hGLP-1R (cAMP formation)” value with human GLP-1 receptor was determined as 0.0029 nM.

B2: SEQ ID NO: (113) (peptide)
peptide: H[dS]QGTFTSDLSKQMEEEAAKLFIEWLKAGGPSSGAPPPSK([γGlu-Palmitoyl])-NH2
modifications: N-terminus assumed
SMILES: CCCCCCCCCCCCCCCC(=O)N[C@@H](CCC(=O)NCCCC[C@H](NC(=O)[C@H](CO)NC(=O)[C@@H]1CCCN1C(=O)[C@@H]1CCCN1C(=O)[C@@H]1CCCN1C(=O)[C@H](C)NC(=O)CNC(=O)[C@H](CO)NC(=O)[C@H](CO)NC(=O)[C@@H]1CCCN1C(=O)CNC(=O)CNC(=O)[C@H](C)NC(=O)[C@H](CCCCN)NC(=O)[C@H](CC(C)C)NC(=O)[C@H](Cc1c[nH]c2ccccc12)NC(=O)[C@H](CCC(=O)O)NC(=O)[C@@H](NC(=O)[C@H](Cc1ccccc1)NC(=O)[C@H](CC(C)C)NC(=O)[C@H](CCCCN)NC(=O)[C@H](C)NC(=O)[C@H](C)NC(=O)[C@H](CCC(=O)O)NC(=O)[C@H](CCC(=O)O)NC(=O)[C@H](CCC(=O)O)NC(=O)[C@H](CCSC)NC(=O)[C@H](CCC(N)=O)NC(=O)[C@H](CCCCN)NC(=O)[C@H](CO)NC(=O)[C@H](CC(C)C)NC(=O)[C@H](CC(=O)O)NC(=O)[C@H](CO)NC(=O)[C@@H](NC(=O)[C@H](Cc1ccccc1)NC(=O)[C@@H](NC(=O)CNC(=O)[C@H](CCC(N)=O)NC(=O)[C@@H](CO)NC(=O)[C@@H](N)Cc1c[nH]cn1)[C@@H](C)O)[C@@H](C)O)[C@@H](C)CC)C(N)=O)C(=O)O
With B2, the “EC50 hGlucagonR (cAMP formation)” value in the experiment with human glucagon receptor was 0.311 nM. For the same molecule, in the experiment with human GLP-1 receptor, the “EC50 hGLP-1R (cAMP formation)” value worked out at 0.002 nM.

B3: SEQ ID NO: (109) (peptide)
peptide: H[dS]QGTFTSDLSKQMESEAAQDFIEWLKAGGPSSGAPPPSK([γGlu-Palmitoyl])-NH2
modifications: N-terminus assumed
SMILES: CCCCCCCCCCCCCCCC(=O)N[C@@H](CCC(=O)NCCCC[C@H](NC(=O)[C@H](CO)NC(=O)[C@@H]1CCCN1C(=O)[C@@H]1CCCN1C(=O)[C@@H]1CCCN1C(=O)[C@H](C)NC(=O)CNC(=O)[C@H](CO)NC(=O)[C@H](CO)NC(=O)[C@@H]1CCCN1C(=O)CNC(=O)CNC(=O)[C@H](C)NC(=O)[C@H](CCCCN)NC(=O)[C@H](CC(C)C)NC(=O)[C@H](Cc1c[nH]c2ccccc12)NC(=O)[C@H](CCC(=O)O)NC(=O)[C@@H](NC(=O)[C@H](Cc1ccccc1)NC(=O)[C@H](CC(=O)O)NC(=O)[C@H](CCC(N)=O)NC(=O)[C@H](C)NC(=O)[C@H](C)NC(=O)[C@H](CCC(=O)O)NC(=O)[C@H](CO)NC(=O)[C@H](CCC(=O)O)NC(=O)[C@H](CCSC)NC(=O)[C@H](CCC(N)=O)NC(=O)[C@H](CCCCN)NC(=O)[C@H](CO)NC(=O)[C@H](CC(C)C)NC(=O)[C@H](CC(=O)O)NC(=O)[C@H](CO)NC(=O)[C@@H](NC(=O)[C@H](Cc1ccccc1)NC(=O)[C@@H](NC(=O)CNC(=O)[C@H](CCC(N)=O)NC(=O)[C@@H](CO)NC(=O)[C@@H](N)Cc1c[nH]cn1)[C@@H](C)O)[C@@H](C)O)[C@@H](C)CC)C(N)=O)C(=O)O
For the molecule B3, in the experiment with human glucagon receptor, the “EC50 hGlucagonR (cAMP formation)” value stood at 0.277 nM. For the same molecule, the “EC50 hGLP-1R (cAMP formation)” value with human GLP-1 receptor was found to be 0.0033 nM.

B4: SEQ ID NO: (111) (peptide)
peptide: H[dS]QGTFTSDLSKQMES[Aib]AAQDFIEWLKAGGPSSGAPPPSK([γGlu-Palmitoyl])-NH2
modifications: N-terminus assumed
SMILES: CCCCCCCCCCCCCCCC(=O)N[C@@H](CCC(=O)NCCCC[C@H](NC(=O)[C@H](CO)NC(=O)[C@@H]1CCCN1C(=O)[C@@H]1CCCN1C(=O)[C@@H]1CCCN1C(=O)[C@H](C)NC(=O)CNC(=O)[C@H](CO)NC(=O)[C@H](CO)NC(=O)[C@@H]1CCCN1C(=O)CNC(=O)CNC(=O)[C@H](C)NC(=O)[C@H](CCCCN)NC(=O)[C@H](CC(C)C)NC(=O)[C@H](Cc1c[nH]c2ccccc12)NC(=O)[C@H](CCC(=O)O)NC(=O)[C@@H](NC(=O)[C@H](Cc1ccccc1)NC(=O)[C@H](CC(=O)O)NC(=O)[C@H](CCC(N)=O)NC(=O)[C@H](C)NC(=O)[C@H](C)NC(=O)C(C)(C)NC(=O)[C@H](CO)NC(=O)[C@H](CCC(=O)O)NC(=O)[C@H](CCSC)NC(=O)[C@H](CCC(N)=O)NC(=O)[C@H](CCCCN)NC(=O)[C@H](CO)NC(=O)[C@H](CC(C)C)NC(=O)[C@H](CC(=O)O)NC(=O)[C@H](CO)NC(=O)[C@@H](NC(=O)[C@H](Cc1ccccc1)NC(=O)[C@@H](NC(=O)CNC(=O)[C@H](CCC(N)=O)NC(=O)[C@@H](CO)NC(=O)[C@@H](N)Cc1c[nH]cn1)[C@@H](C)O)[C@@H](C)O)[C@@H](C)CC)C(N)=O)C(=O)O
With B4, in the experiment with human glucagon receptor, the “EC50 hGlucagonR (cAMP formation)” value was determined as 0.206 nM. In addition, the “EC50 hGLP-1R (cAMP formation)” value in the experiment with human GLP-1 receptor came to 0.0041 nM.
Taken in the same sequence, the figures for HSQGTFTSDLSKQMEEERAKDFIEWLKNGGPSSGAPPPS-NH2 [SEQ ID NO: (17)] were 3.36 nM and 0.0241 nM.

B5: SEQ ID NO: (108) (peptide)
peptide: H[dS]QGTFTSDLSKQMEEEAAQDFIEWLKAGGPSSGAPPPSK([γGlu-Palmitoyl])-NH2
modifications: N-terminus assumed
SMILES: CCCCCCCCCCCCCCCC(=O)N[C@@H](CCC(=O)NCCCC[C@H](NC(=O)[C@H](CO)NC(=O)[C@@H]1CCCN1C(=O)[C@@H]1CCCN1C(=O)[C@@H]1CCCN1C(=O)[C@H](C)NC(=O)CNC(=O)[C@H](CO)NC(=O)[C@H](CO)NC(=O)[C@@H]1CCCN1C(=O)CNC(=O)CNC(=O)[C@H](C)NC(=O)[C@H](CCCCN)NC(=O)[C@H](CC(C)C)NC(=O)[C@H](Cc1c[nH]c2ccccc12)NC(=O)[C@H](CCC(=O)O)NC(=O)[C@@H](NC(=O)[C@H](Cc1ccccc1)NC(=O)[C@H](CC(=O)O)NC(=O)[C@H](CCC(N)=O)NC(=O)[C@H](C)NC(=O)[C@H](C)NC(=O)[C@H](CCC(=O)O)NC(=O)[C@H](CCC(=O)O)NC(=O)[C@H](CCC(=O)O)NC(=O)[C@H](CCSC)NC(=O)[C@H](CCC(N)=O)NC(=O)[C@H](CCCCN)NC(=O)[C@H](CO)NC(=O)[C@H](CC(C)C)NC(=O)[C@H](CC(=O)O)NC(=O)[C@H](CO)NC(=O)[C@@H](NC(=O)[C@H](Cc1ccccc1)NC(=O)[C@@H](NC(=O)CNC(=O)[C@H](CCC(N)=O)NC(=O)[C@@H](CO)NC(=O)[C@@H](N)Cc1c[nH]cn1)[C@@H](C)O)[C@@H](C)O)[C@@H](C)CC)C(N)=O)C(=O)O
For the molecule B5, the “EC50 hGlucagonR (cAMP formation)” value in the experiment with human glucagon receptor was 0.541 nM. For the same molecule, the “EC50 hGLP-1R (cAMP formation)” value in the experiment with human GLP-1 receptor was found to be 0.0021 nM.

B6: SEQ ID NO: (112) (peptide)
peptide: H[dS]QGTFTSDLSKQMES[Aib]AAQLFIEWLKAGGPSSGAPPPSK([γGlu-Palmitoyl])-NH2
modifications: N-terminus assumed
SMILES: CCCCCCCCCCCCCCCC(=O)N[C@@H](CCC(=O)NCCCC[C@H](NC(=O)[C@H](CO)NC(=O)[C@@H]1CCCN1C(=O)[C@@H]1CCCN1C(=O)[C@@H]1CCCN1C(=O)[C@H](C)NC(=O)CNC(=O)[C@H](CO)NC(=O)[C@H](CO)NC(=O)[C@@H]1CCCN1C(=O)CNC(=O)CNC(=O)[C@H](C)NC(=O)[C@H](CCCCN)NC(=O)[C@H](CC(C)C)NC(=O)[C@H](Cc1c[nH]c2ccccc12)NC(=O)[C@H](CCC(=O)O)NC(=O)[C@@H](NC(=O)[C@H](Cc1ccccc1)NC(=O)[C@H](CC(C)C)NC(=O)[C@H](CCC(N)=O)NC(=O)[C@H](C)NC(=O)[C@H](C)NC(=O)C(C)(C)NC(=O)[C@H](CO)NC(=O)[C@H](CCC(=O)O)NC(=O)[C@H](CCSC)NC(=O)[C@H](CCC(N)=O)NC(=O)[C@H](CCCCN)NC(=O)[C@H](CO)NC(=O)[C@H](CC(C)C)NC(=O)[C@H](CC(=O)O)NC(=O)[C@H](CO)NC(=O)[C@@H](NC(=O)[C@H](Cc1ccccc1)NC(=O)[C@@H](NC(=O)CNC(=O)[C@H](CCC(N)=O)NC(=O)[C@@H](CO)NC(=O)[C@@H](N)Cc1c[nH]cn1)[C@@H](C)O)[C@@H](C)O)[C@@H](C)CC)C(N)=O)C(=O)O
For B6, the “EC50 hGlucagonR (cAMP formation)” value with human glucagon receptor worked out at 0.876 nM. The “EC50 hGLP-1R (cAMP formation)” value with human GLP-1 receptor was 0.0097 nM.

The values above are taken from patent publication US20130336893A1 (Sanofi, published 2013).
